Assays:
Experiment in all cases: ELISA: plate-coated PD-1, detection by anti-kappa-HRP
human PD-1 = target: T1, human PD-1 (human, UniProt Q15116 25-167, limits assumed)
T1 construct: also called huPD-1

cynomolgus PD-1 = target: T2, cynomolgus PD-1 (cynomolgus, UniProt B0LAJ3 25-170)
T2 construct: also called cyno PD-1

mouse PD-1 = target: T3, mouse PD-1 (mouse, UniProt Q02242 25-167, limits assumed)
T3 sequence (looked up): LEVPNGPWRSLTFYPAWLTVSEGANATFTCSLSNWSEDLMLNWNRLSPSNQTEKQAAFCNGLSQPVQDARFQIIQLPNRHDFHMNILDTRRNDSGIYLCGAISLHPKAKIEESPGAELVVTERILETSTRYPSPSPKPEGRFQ

Measured: binding result

T1 sequence (Q15116 25-167 limits assumed): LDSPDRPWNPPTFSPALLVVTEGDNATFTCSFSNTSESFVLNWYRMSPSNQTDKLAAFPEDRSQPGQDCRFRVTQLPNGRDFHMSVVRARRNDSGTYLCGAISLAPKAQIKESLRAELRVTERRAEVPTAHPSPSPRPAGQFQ
T2 sequence (B0LAJ3 entry or part of it limits assumed): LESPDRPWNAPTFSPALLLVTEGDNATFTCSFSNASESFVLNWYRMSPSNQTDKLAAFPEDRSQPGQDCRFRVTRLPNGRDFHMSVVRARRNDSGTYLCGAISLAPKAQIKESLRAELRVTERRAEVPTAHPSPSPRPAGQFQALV

B1: PD1AB69 (bispecific antibody, human IgG1, kappa)
heavy: EVQLLESGGGLVQPGGSLRLSCAASGFTFSSYDMSWVRQAPGKGLEWVSGITISGGSTYYADSVKGRFTISRDNSKNTLYLQMNSLRAEDTAVYYCARGRGGSGWLDYWGQGTTVTVSSASTKGPSVFPLAPSSKSTSGGTAALGCLVKDYFPEPVTVSWNSGALTSGVHTFPAVLQSSGLYSLSSVVTVPSSSLGTQTYICNVNHKPSNTKVDKKVEPKSCDKTHTCPPCPAPEAAGAPSVFLFPPKPKDTLMISRTPEVTCVVVDVSHEDPEVKFNWYVDGVEVHNAKTKPREEQYNSTYRVVSVLTVLHQDWLNGKEYKCKVSNKALPAPIEKTISKAKGQPREPQVYTLPPSREEMTKNQVSLTCLVKGFYPSDIAVEWESNGQPENNYKTTPPVLDSDGSFFLYSKLTVDKSRWQQGNVFSCSVMHEALHNHYTQKSLSLSPGGGGSEGGGSEGGGSEDIQMTQSPSSLSASVGDRVTITCQASRDILNYLAWYQQKPGKAPKLLIYAASSLQSGVPSRFSGSGSGTDFTLTISSLQPEDFATYYCQQSYSTPPTFGCGTKVDIKGGGGSGGGGSGGGGSGGGGSEVQLVQSGAEVKKPGASVKVSCKASGYSFTTYYMHWVRQAPGQCLEWMGIINPSGGSTSYAQKFQGRVTMTRDTSTSTVYMELSSLRSEDTAVYYCASGWVYWGQGTLVTVSS
light: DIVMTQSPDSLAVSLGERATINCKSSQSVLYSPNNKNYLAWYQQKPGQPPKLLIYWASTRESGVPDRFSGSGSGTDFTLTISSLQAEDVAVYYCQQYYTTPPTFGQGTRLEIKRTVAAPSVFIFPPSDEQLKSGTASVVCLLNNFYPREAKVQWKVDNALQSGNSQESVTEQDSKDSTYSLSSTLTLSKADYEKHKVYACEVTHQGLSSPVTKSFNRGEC
binds: all assays above
